Laboratory results published in patent publication US20240116985A1 (published 2024).
Starred links: 1 amine or outer side, 2 acyl side, 3 side chain; linkers in the order of their positions; H or OH if unused. Positions of bridges follow the written chain, without caps; N, C: chain ends. Non-standard residues stand in square brackets, D forms with d. Primed or numbered codes have the meaning given here. *: point of attachment. PyrS2″ = (S)-3-amino-1-((pent-4-en-1-yloxy)carbonyl)pyrrolidine-3-carboxylic acid (stapling residue), C=CCCCOC(=O)N1CC[C@@](N[*:1])(C(=O)[*:2])C1; B5(4) = 2,2-bis(4-pentenyl)glycine = 2-amino-2-(pent-4-en-1-yl)hept-6-enoic acid (stitching residue), C=CCCCC(CCCC=C)(N[*:1])C(=O)[*:2]; B5(5) = 2,2-bis(4-pentenyl)glycine, 2-amino-2-(pent-4-en-1-yl)hept-6-enoic acid (stitching residue), C=CCCCC(CCCC=C)(N[*:1])C(=O)[*:2]; MePpzAsn = (S)-2-amino-4-(4-methylpiperazin-1-yl)-4-oxobutanoic acid, CN1CCN(C(=O)C[C@H](N[*:1])C(=O)[*:2])CC1; B5(3) = 2,2-bis(4-pentenyl)glycine (stitching residue), C=CCCCC(CCCC=C)(N[*:1])C(=O)[*:2]; Phe(3-CF3) = N[C@@H](Cc1cccc(C(F)(F)F)c1)C(=O)O; Phe(3-COOH) = N[C@@H](Cc1cccc(C(=O)O)c1)C(=O)O; 2F3MeF = Cc1cccc(C[C@H](N[*:1])C(=O)[*:2])c1F; Phe(2-Cl) = N[C@@H](Cc1ccccc1Cl)C(=O)O; Bta = N[C@@H](Cc1csc2ccccc12)C(=O)O; αAllylPro = C=CC[C@@]1(C(=O)O)CCCN1; tBuAla = CC(C)(C)C[C@H](N)C(=O)O; Alaol = C[C@@H](CO)N*

How the values were obtained:
[1] = molecular target: T1, beta-catenin (endogenous, DLD1 TCF/LEF luciferase reporter cells) (UniProt P35222 1-781); assay: cell-based or functional assay
T1 sequence (looked up): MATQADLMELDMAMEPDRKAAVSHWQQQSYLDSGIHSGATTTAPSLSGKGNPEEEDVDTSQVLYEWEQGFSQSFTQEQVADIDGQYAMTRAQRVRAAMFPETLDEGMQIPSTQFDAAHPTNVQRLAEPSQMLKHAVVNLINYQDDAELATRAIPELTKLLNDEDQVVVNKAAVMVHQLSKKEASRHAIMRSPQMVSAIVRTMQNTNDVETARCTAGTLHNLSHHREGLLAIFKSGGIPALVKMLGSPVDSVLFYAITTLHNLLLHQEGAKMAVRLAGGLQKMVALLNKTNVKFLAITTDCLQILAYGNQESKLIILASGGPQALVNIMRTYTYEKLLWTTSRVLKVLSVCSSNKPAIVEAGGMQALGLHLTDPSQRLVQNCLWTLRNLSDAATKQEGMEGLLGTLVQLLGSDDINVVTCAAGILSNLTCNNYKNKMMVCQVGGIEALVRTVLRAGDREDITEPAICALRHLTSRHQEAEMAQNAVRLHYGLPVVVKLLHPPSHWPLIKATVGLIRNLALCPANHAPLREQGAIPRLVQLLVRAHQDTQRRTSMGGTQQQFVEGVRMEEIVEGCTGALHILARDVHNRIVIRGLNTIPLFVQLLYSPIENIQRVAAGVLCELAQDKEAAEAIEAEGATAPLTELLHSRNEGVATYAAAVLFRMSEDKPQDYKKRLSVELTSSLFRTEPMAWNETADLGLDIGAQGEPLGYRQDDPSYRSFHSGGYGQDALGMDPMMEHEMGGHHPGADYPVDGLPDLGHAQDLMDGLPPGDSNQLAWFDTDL

B-cat-Halo = molecular target: T2, B-cat-Halo (UniProt P35222 1-781); assay: cell-based or functional assay
T2 sequence (looked up): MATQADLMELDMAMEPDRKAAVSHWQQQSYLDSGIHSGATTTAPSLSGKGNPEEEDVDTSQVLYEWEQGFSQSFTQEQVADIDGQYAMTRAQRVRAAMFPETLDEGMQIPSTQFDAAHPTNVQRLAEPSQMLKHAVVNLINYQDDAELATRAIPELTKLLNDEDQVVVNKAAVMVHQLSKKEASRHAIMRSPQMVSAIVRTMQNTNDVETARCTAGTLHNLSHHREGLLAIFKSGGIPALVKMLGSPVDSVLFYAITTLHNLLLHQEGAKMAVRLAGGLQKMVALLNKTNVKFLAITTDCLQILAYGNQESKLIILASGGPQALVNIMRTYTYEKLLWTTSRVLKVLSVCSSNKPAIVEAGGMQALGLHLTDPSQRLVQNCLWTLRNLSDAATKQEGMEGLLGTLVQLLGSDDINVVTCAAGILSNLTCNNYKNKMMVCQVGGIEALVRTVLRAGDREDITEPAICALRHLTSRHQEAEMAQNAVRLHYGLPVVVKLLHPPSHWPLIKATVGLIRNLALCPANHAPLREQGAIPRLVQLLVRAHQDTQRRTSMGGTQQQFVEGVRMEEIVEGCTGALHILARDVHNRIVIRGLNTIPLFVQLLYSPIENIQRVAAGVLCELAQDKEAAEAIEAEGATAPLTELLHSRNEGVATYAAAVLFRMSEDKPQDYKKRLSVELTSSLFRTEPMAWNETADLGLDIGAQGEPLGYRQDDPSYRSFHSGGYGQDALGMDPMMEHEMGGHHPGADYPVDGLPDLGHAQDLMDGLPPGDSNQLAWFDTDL

[2] = molecular target: T3, B-cat-Halo (beta-catenin HaloTag NanoBRET construct expressed in HEK293 cells) (Homo sapiens (Human), UniProt P35222 1-781); assay: cell-based or functional assay
T3 sequence: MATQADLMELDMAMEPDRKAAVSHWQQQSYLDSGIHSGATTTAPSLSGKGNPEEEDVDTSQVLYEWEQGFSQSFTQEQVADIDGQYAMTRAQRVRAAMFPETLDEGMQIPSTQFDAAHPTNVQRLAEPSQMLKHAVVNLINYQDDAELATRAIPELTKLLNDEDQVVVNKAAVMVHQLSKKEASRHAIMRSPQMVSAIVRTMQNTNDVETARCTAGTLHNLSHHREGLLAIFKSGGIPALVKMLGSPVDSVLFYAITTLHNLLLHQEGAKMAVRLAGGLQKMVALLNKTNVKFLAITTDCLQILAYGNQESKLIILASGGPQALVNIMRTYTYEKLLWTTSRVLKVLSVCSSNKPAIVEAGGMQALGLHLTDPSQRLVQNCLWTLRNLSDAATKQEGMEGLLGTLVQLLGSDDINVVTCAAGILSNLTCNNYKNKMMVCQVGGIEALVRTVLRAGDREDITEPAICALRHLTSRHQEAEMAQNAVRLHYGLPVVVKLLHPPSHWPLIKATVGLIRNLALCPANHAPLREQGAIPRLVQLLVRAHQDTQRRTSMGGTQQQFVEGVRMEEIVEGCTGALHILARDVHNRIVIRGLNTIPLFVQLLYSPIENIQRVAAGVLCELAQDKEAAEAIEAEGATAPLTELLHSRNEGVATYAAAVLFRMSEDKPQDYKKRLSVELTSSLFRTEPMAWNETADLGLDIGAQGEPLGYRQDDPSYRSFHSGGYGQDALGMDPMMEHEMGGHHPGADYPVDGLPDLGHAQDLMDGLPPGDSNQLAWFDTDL

[3] = molecular target: T4, beta-catenin in DLD1 TCF/LEF luciferase reporter cells (Homo sapiens (Human), UniProt P35222 2-781); assay: cell-based or functional assay
T4 sequence: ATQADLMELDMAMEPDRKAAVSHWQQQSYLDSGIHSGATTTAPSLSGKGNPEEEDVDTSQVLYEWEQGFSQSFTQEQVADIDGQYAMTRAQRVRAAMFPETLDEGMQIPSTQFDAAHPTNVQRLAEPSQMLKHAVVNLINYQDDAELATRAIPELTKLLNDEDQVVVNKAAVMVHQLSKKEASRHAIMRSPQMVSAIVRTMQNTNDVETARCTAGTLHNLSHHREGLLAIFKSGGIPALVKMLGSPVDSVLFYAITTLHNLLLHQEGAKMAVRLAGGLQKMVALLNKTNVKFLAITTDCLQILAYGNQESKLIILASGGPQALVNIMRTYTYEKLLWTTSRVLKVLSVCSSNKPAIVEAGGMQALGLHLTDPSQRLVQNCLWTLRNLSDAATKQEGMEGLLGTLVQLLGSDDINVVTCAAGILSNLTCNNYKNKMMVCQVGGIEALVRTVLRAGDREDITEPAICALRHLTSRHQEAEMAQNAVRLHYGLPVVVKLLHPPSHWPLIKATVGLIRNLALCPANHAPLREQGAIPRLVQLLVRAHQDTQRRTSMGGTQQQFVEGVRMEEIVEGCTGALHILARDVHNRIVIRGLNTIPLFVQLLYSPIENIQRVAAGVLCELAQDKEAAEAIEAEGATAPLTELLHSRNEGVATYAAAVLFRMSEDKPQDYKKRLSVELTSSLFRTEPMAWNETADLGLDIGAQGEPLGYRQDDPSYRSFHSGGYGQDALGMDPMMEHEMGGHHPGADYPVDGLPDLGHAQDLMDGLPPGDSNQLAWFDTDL

[4] = molecular target: B-cat-Halo (beta-catenin HaloTag fusion expressed in HEK293 cells) (UniProt P35222 1-781); assay: NanoBRET Abs IC50 in HEK293 cells; Bcat-Halo / TCF4-Luc engagement, competitor TCF4-Luc

B1: I-1612 (peptide)
peptide: Ac-[αAllylPro]D[tBuAla][B5(3)]D[Phe(3-COOH)]AAFL[PyrS2″][2F3MeF][Bta][MePpzAsn]-NH2
modifications: staple 1-4, 4-11
For B1, the “DLD1 4% Abs IC50” value [1] was 4 µM and the “NanoBRET Abs IC50” value (B-cat-Halo) was 5.3 µM.

B2: I-1246 (peptide)
peptide: Ac-[αAllylPro]D[tBuAla][B5(4)]DDAAFT[PyrS2″][Phe(2-Cl)][Bta]-Alaol
modifications: staple 1-4, 4-11; also: C-terminal Alao1 group, meaning not given here
B2 was tested, and the “NanoBRET Abs IC50” value [2] was 24.3 µM and the “DLD1 4% Abs IC50” value [3] was 16.2 µM.

B3: I-1268: Ac-PL3-Asp-Npg-B5-Asp-Thr-Ala-Ala-3F3MeF-Thr-PyrS2-Phe-BztA-Ser-NH2 (peptide)
peptide: Ac-[αAllylPro]D[tBuAla][B5(5)]DTAA[Phe(3-CF3)]T[PyrS2″]F[Bta]S-NH2
modifications: staple 1-4, 4-11
B3 gave an IC50 [4] of 28.4 µM.
